Data reported in US6822075.

Experiments:
[1] = molecular target: Human polyclonal IgG (human); assay: affinity constant, method not stated; table prints no power of ten
[2] = molecular target: Human polyclonal IgG (human); assay: affinity constant, method not stated; same result as the 1st table, row 8, column 7 but printed with its power of ten

B1: Protein LG (protein)
chain: AVENKEETPETPETDSEEEVTIKANLIFANGSTQTAEFKGTFEKATSEAYAYADTLKKDNGEYTVDVADKGYTLNIKFAGKEKTPEEPKEEVTIKANLIYADGKTQTAEFKGTFEEATAEAYRYADALKKDNGEYTVDVADKGYTLNIKFAGKEKTPEEPKEEVTIKANLIYADGKTQTAEFKGTFEEATAEAYRYADLLAKENGKYTVDVADKGYTLNIKFAGKEKTPEEPKEEVTIKANLIYADGKTQTAEFKGTFAEATAEAYRYADLLAKENGKYTADLEDGGYTINIRFAGKKVDEKPEEPMDTYKLILNGKTLKGETTTEAVDAATAEKVFKQYANDNGVDGEWTYDDATKTFTVTEKPEVIDASELTPAVTTYKLVINGKTLKGETTTKAVDAETAEKAFKQYANDNGVDGVWTYDDATKTFTVTEM
Work on B1 yielded a Ka [1] of 20 M⁻¹ and a Ka [2] of 2e+10 M⁻¹.
